± gives the uncertainty stated by the source.
Assay: self-splicing fitness, log relative to wild type (ln ratio); higher = more splicing; Tetrahymena group I intron in knt gene, E. coli kanamycin selection, DiMSum; sequences stand for … in CUCUCU…GGAGGGAAAAGUUAUCAGGCAUGCACCUGGUAGCUAGUCUUUAAACCAAUAGAUUGCAUCGGUUUAAAAGGCAAGACCGUCAAAUUGCGGGAAAGGGGUCAACAGCCGUUCAGUACCAAGUCUCAGGGGAAACUUUGAGAUGGCCUUGCAAAGGGUAUGGUAAUAAGCUGACGGACAUGGUCCUAACCACGCAGCCAAGUCCUAAGUCAACAGAUCUUCUGUUGAUAUGGAUGCAGUUCACAGACUAAAUGUCGGUCGGGGAAGAUGUAUUCUUCUCAUAAGAUAUAGUCGGACCUCUCCUUAAUGGGAGCUAGCGGAUGAAGUGAUGCAACACUGGAGCCGCUGGGAACUAAUUUGUAUGCGAAAGUAUAUUGAUUAGUUUUGGAGUACUCGUGGUCG
Summary of the method: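 Six replicate transformations of E. coli BL21(DE3) with a pET-22b(+) library were grown overnight at 37°C or 30°C. The library randomised all eight P1ex-region intron nucleotides, the intron lying in the knt kanamycin-resistance gene, and plates were LB agar with or without 25 μg/mL kanamycin plus 100 μg/mL carbenicillin, 50 μM IPTG and 0.2% rhamnose. Pooled colonies were amplicon-sequenced on an Illumina HiSeq 2500, and fitness is the DiMSum error-weighted combination of wild-type-normalised replicate fold changes, kanamycin versus none.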

Row | Sequence | self-splicing fitness (ln) (30 °C) | self-splicing fitness (ln) (37 °C)
1 | GUCAAGCAAUAUUACGGUCC | -2.23 ± 0.27 | -1.09 ± 0.25
2 | UCAGAGCAAUAUUACGCAUG | -3.13 ± 0.3 | -2.02 ± 0.21
3 | CUAUAGCAAUAUUACGCCAA |  | -1.68 ± 0.49
4 | AACUAGCAAUAUUACGCUAU | -2.88 ± 0.14 | -1.84 ± 0.13
5 | UCCGAGCAAUAUUACGCGCG | -2.28 ± 0.15 | -3.28 ± 0.43
6 | GUGUAGCAAUAUUACGCUCU | -1.72 ± 0.23 | -0.839 ± 0.22
7 | GGUAAGCAAUAUUACGAUGC | -0.616 ± 0.13 | -0.401 ± 0.16
8 | CACCAGCAAUAUUACGCCUG | -1.11 ± 0.076 | -0.247 ± 0.097
9 | ACAAAGCAAUAUUACGAGAG | -2.93 ± 0.16 | -1.1 ± 0.1
10 | CCACAGCAAUAUUACGAAUG | -1.11 ± 0.061 | -0.833 ± 0.071
11 | CAUUAGCAAUAUUACGUACA | -2.7 ± 0.21 | -2.58 ± 0.2
12 | UAGUAGCAAUAUUACGUGCG | -1.52 ± 0.12 | -0.311 ± 0.15
13 | UGCUAGCAAUAUUACGCUCU | -1.63 ± 0.13 | -0.156 ± 0.15
14 | CGCGAGCAAUAUUACGAGCG | -3.55 ± 0.28 | -2.37 ± 0.3
15 | AGUAAGCAAUAUUACGGACA | -0.314 ± 0.091 | -0.393 ± 0.11
16 | GGAUAGCAAUAUUACGAUUA | -0.674 ± 0.17 | 0.409 ± 0.15
17 | GACGAGCAAUAUUACGUGGC | -0.192 ± 0.41 | -1.57 ± 0.22
18 | UUUCAGCAAUAUUACGCUGC | -2.48 ± 0.31 | -1.14 ± 0.35
19 | CGCUAGCAAUAUUACGCAUA | -3.26 ± 0.21 | -2.36 ± 0.21
20 | CCUUAGCAAUAUUACGCAGA | -3.11 ± 0.36 | -2.72 ± 0.3

Row | Sequence | self-splicing fitness (ln) (30 °C) | self-splicing fitness (ln) (37 °C)
21 | CCAAAGCAAUAUUACGAAAC | -3.13 ± 0.2 | -2.95 ± 0.34
22 | GUGGAGCAAUAUUACGUUGA | -3.13 ± 0.47 | -1.5 ± 0.25
23 | AGUGAGCAAUAUUACGGAUA | -2.82 ± 0.28 | -0.678 ± 0.35
24 | UGACAGCAAUAUUACGCAAU | -2.38 ± 0.12 | -1.84 ± 0.16
25 | GCCUAGCAAUAUUACGCUGC |  | -1.32 ± 0.21
26 | GGACAGCAAUAUUACGGUAC | -0.625 ± 0.11 | -0.234 ± 0.13
27 | CAGUAGCAAUAUUACGGUAG | -1.21 ± 0.067 | 0.0261 ± 0.098
28 | UGAAAGCAAUAUUACGUUCU | -1.37 ± 0.11 | -0.484 ± 0.1
29 | AUGUAGCAAUAUUACGUGAG | -0.927 ± 0.15 | -0.0873 ± 0.21
30 | ACGGAGCAAUAUUACGAGCA | -3.2 ± 0.34 | 
31 | GAUGAGCAAUAUUACGUAUG |  | -1.59 ± 0.14
32 | UAGCAGCAAUAUUACGGGCG | -0.609 ± 0.065 | -0.24 ± 0.087
33 | ACUGAGCAAUAUUACGAGCC | -3.59 ± 0.4 | 
34 | GUACAGCAAUAUUACGUGCC | -2.93 ± 0.13 | -2.54 ± 0.22
35 | AGCGAGCAAUAUUACGCUCG | -3.5 ± 0.27 | -2.34 ± 0.49
36 | UCUGAGCAAUAUUACGGUCG | -4.19 ± 0.33 | -2.67 ± 0.28
37 | CGGUAGCAAUAUUACGUUCC | -4.16 ± 0.33 | -1.9 ± 0.26
38 | ACCAAGCAAUAUUACGCCCG | -1.42 ± 0.14 | 0.129 ± 0.15
39 | UUAGAGCAAUAUUACGAUUA | -1.07 ± 0.11 | -0.181 ± 0.13
